Assay results reported in article doi:10.1101/2020.09.10.290023.

Experiments:
[1] = molecular target: Donor (Alexa 488)-labeled, biotinylated Avi-C-Aβ42 (Avi-D-Aβ42) (UniProt P05067); experiment: FRET or BRET
[2] = molecular target: Donor-labeled tetramerization domain (TD) of p53 with AviTag (Avi-D-TD); experiment: FRET or BRET

Row | Kd [1] [µM] | stoichiometry N [1] | stoichiometry N [2] | Substance
1 | 240 | > 10 | – | Acceptor (Alexa 594)-labeled C-Aβ42 (A-Aβ42) (from UniProt P05067 672-713) (peptide)
2 | – | – | 4 | Acceptor-labeled tetramerization domain (TD) of p53 (TD-A) (domain or fragment)
